Source: publication PMC4402527

Biological target: eIF2β of rabbit reticulocyte lysate (rabbit (endogenous in reticulocyte lysate)) (UniProt P41035)
UniProt P41035, sequence (P41035 whole entry): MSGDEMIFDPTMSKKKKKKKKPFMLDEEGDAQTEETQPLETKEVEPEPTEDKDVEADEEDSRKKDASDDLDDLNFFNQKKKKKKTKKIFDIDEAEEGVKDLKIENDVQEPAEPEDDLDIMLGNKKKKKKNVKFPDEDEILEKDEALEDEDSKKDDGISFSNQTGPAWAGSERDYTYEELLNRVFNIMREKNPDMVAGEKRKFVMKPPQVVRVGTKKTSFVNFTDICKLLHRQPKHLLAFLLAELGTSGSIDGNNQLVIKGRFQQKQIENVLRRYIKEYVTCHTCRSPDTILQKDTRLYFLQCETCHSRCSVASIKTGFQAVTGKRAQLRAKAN

| fold stimulation of m7GpppG-Bcl2 5′UTR-FL-poly(A)35 mRNA (25 ng) translation in nuclease treated RRL by 1.6 pmol protein (luciferase) | Binder |
| --- | --- |
| 1.65 fold | Recombinant mutant DAP5, E862K (natural protein) MESAIAEGGASRFSASSGGGGSRGAPQHYPKTAGNSEFLGKTPGQNAQKWIPARSTRRDDNSAANNSANEKERHDAIFRKVRGILNKLTPEKFDKLCLELLNVGVESKLILKGVILLIVDKALEEPKYSSLYAQLCLRLAEDAPNFDGPAAEGQPGQKQSTTFRRLLISKLQDEFENRTRNVDVYDKRENPLLPEEEEQRAIAKIKMLGNIKFIGELGKLDLIHESILHKCIKTLLEKKKRVQLKDMGEDLECLCQIMRTVGPRLDHERAKSLMDQYFARMCSLMLSKELPARIRFLLQDTVELREHHWVPRKAFLDNGPKTINQIRQDAVKDLGVFIPAPMAQGMRSDFFLEGPFMPPRMKMDRDPLGGLADMFGQMPGSGIGTGPGVIQDRFSPTMGRHRSNQLFNGHGGHIMPPTQSQFGEMGGKFMKSQGLSQLYHNQSQGLLSQLQGQSKDMPPRFSKKGQLNADEISLRPAQSFLMNKNQVPKLQPQITMIPPSAQPPRTQTPPLGQTPQLGLKTNPPLIQEKPAKTSKKPPPSKEELLKLTETVVTEYLNSGNANEAVNGVREMRAPKHFLPEMLSKVIILSLDRSDEDKEKASSLISLLKQEGIATSDNFMQAFLNVLDQCPKLEVDIPLVKSYLAQFAARAIISELVSISELAQPLESGTHFPLFLLCLQQLAKLQDREWLTELFQQSKVNMQKMLPEIDQNKDRMLEILEGKGLSFLFPLLKLEKELLKQIKLDPSPQTIYKWIKDNISPKLHVDKGFVNILMTSFLQYISSEVNPPSDETDSSSAPSKEQLEQEKQLLLSFKPVMQKFLHDHVDLQVSALYALQVHCYNSNFPKGMLLRFFVHFYDMEIIKEEAFLAWKEDITQEFPGKGKALFQVNQWLTWLETAEEEESEEEAD |
| 4 fold | Recombinant human DAP5 (1–907) (natural protein) MESAIAEGGASRFSASSGGGGSRGAPQHYPKTAGNSEFLGKTPGQNAQKWIPARSTRRDDNSAANNSANEKERHDAIFRKVRGILNKLTPEKFDKLCLELLNVGVESKLILKGVILLIVDKALEEPKYSSLYAQLCLRLAEDAPNFDGPAAEGQPGQKQSTTFRRLLISKLQDEFENRTRNVDVYDKRENPLLPEEEEQRAIAKIKMLGNIKFIGELGKLDLIHESILHKCIKTLLEKKKRVQLKDMGEDLECLCQIMRTVGPRLDHERAKSLMDQYFARMCSLMLSKELPARIRFLLQDTVELREHHWVPRKAFLDNGPKTINQIRQDAVKDLGVFIPAPMAQGMRSDFFLEGPFMPPRMKMDRDPLGGLADMFGQMPGSGIGTGPGVIQDRFSPTMGRHRSNQLFNGHGGHIMPPTQSQFGEMGGKFMKSQGLSQLYHNQSQGLLSQLQGQSKDMPPRFSKKGQLNADEISLRPAQSFLMNKNQVPKLQPQITMIPPSAQPPRTQTPPLGQTPQLGLKTNPPLIQEKPAKTSKKPPPSKEELLKLTETVVTEYLNSGNANEAVNGVREMRAPKHFLPEMLSKVIILSLDRSDEDKEKASSLISLLKQEGIATSDNFMQAFLNVLDQCPKLEVDIPLVKSYLAQFAARAIISELVSISELAQPLESGTHFPLFLLCLQQLAKLQDREWLTELFQQSKVNMQKMLPEIDQNKDRMLEILEGKGLSFLFPLLKLEKELLKQIKLDPSPQTIYKWIKDNISPKLHVDKGFVNILMTSFLQYISSEVNPPSDETDSSSAPSKEQLEQEKQLLLSFKPVMQKFLHDHVDLQVSALYALQVHCYNSNFPKGMLLRFFVHFYDMEIIEEEAFLAWKEDITQEFPGKGKALFQVNQWLTWLETAEEEESEEEAD |
